Values quoted from earlier work, collected in patent US7850723B1, “Method and apparatus for patient temperature control employing titration of therapy using EEG signals” (Innercool Therapies, Inc., priority 2005, dated 2010).

B1: α2-antiplasmin (protein, UniProt P08697 40-491, looked up)
Alpha-2-antiplasmin: NQEQVSPLTLLKLGNQEPGGQTALKSPPGVCSRDPTPEQTHRLARAMMAFTADLFSLVAQTSTCPNLILSPLSVALALSHLALGAQNHTLQRLQQVLHAGSGPCLPHLLSRLCQDLGPGAFRLAARMYLQKGFPIKEDFLEQSEQLFGAKPVSLTGKQEDDLANINQWVKEATEGKIQEFLSGLPEDTVLLLLNAIHFQGFWRNKFDPSLTQRDSFHLDEQFTVPVEMMQARTYPLRWFLLEQPEIQVAHFPFKNNMSFVVLVPTHFEWNVSQVLANLSWDTLHPPLVWERPTKVRLPKLYLKHQMDLVATLSQLGLQELFQAPDLRGISEQSLVVSGVQHQSTLELSEVGVEAAAATSIAMSRMSLSSFSVNRPFLFFIFEDTTGLPLFVGSVRNPNPSAPRELKEQQDSPGNKDFLQSLKGFPRGDKLFGPDLKLVPPMEEDYPQFGSPK
B2: tissue plasminogen activator (protein, UniProt P00750 36-562, looked up)
Tissue-type plasminogen …: SYQVICRDEKTQMIYQQHQSWLRPVLRSNRVEYCWCNSGRAQCHSVPVKSCSEPRCFNGGTCQQALYFSDFVCQCPEGFAGKCCEIDTRATCYEDQGISYRGTWSTAESGAECTNWNSSALAQKPYSGRRPDAIRLGLGNHNYCRNPDRDSKPWCYVFKAGKYSSEFCSTPACSEGNSDCYFGNGSAYRGTHSLTESGASCLPWNSMILIGKVYTAQNPSAQALGLGKHNYCRNPDGDAKPWCHVLKNRRLTWEYCDVPSCSTCGLRQYSQPQFRIKGGLFADIASHPWQAAIFAKHRRSPGERFLCGGILISSCWILSAAHCFQERFPPHHLTVILGRTYRVVPGEEEQKFEVEKYIVHKEFDDDTYDNDIALLQLKSDSSRCAQESSVVRTVCLPPADLQLPDWTECELSGYGKHEALSPFYSERLKEAHVRLYPSSRCTSQHLLNRTVTDNMLCAGDTRSGGPQANLHDACQGDSGGPLVCLNDGRMTLVGIISWGLGCGQKDVPGVYTKVTNYLDWIRDNMRP

Experiments:
[1] = target: plasmin (Homo sapiens, UniProt P00747)
[2] = test system: clots; conditions: tPA 0.3, 1.0 and 3.0 μg/ml; incubated at 24° C. to 40° C.
[3] = test system: clots; conditions: clots treated with 2.5 μg/ml tPA; incubated at 37, 25, 10, 0 and −8° C.

plasmin, sequence (P00747 581-810 limits assumed, species assumed): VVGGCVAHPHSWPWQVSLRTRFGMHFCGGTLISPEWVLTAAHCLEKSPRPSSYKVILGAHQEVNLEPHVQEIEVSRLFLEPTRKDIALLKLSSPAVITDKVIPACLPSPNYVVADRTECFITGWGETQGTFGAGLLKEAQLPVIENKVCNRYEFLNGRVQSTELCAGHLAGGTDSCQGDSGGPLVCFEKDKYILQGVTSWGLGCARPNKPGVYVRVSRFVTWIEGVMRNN
plasmin, sequence (P00747 97-580 partner limits assumed, species assumed): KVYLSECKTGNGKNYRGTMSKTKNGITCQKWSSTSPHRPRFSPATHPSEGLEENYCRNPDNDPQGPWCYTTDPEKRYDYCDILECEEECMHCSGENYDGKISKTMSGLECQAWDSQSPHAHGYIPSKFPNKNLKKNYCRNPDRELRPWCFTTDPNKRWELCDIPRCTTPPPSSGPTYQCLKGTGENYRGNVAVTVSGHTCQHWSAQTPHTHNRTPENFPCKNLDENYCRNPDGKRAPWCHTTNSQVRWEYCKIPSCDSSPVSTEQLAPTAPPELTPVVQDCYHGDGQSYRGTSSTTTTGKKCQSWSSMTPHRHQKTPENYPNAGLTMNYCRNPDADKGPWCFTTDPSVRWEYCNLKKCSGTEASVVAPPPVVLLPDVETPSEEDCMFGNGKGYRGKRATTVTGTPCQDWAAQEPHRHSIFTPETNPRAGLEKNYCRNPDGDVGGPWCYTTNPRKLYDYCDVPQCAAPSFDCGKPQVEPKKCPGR

Row | Molecule | time required to inactivate plasmin bound to a fibrin surface [1] | amount of clot lysis [2] | plasminogen activation [3]
1 | B1 | about 10 seconds | – | –
2 | B2 | – | the amount of clot lysis at lower temperatures was less than that at higher temperatures | relatively high at low temperatures
